Target: T1, MMP2 (Homo sapiens, UniProt P08253)
T1 construct: purchased R&D systems Inc
T1 sequence (P08253 110-660): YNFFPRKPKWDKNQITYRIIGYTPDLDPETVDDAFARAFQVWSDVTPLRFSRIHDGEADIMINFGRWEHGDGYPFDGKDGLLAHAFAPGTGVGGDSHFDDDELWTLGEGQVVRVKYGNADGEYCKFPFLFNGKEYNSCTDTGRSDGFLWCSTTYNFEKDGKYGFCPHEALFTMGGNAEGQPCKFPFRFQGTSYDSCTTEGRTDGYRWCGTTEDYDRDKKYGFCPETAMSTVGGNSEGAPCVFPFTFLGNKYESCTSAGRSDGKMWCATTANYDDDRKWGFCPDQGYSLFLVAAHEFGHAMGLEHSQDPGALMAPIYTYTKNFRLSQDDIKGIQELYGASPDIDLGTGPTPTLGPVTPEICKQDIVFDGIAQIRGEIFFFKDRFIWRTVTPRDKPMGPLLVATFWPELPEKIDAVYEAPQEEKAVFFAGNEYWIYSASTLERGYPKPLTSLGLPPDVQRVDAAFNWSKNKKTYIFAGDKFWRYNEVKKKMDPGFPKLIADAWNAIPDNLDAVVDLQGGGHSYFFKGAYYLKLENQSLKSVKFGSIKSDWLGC
Assay: Reaction between MMP2 and substrate peptide-probe, cleavage monitored by HPLC and MALDI-TOF-MS
Assay type: biochemical
Details: 1 mM peptide, MMP2 1 μg, TCNB buffer pH 7.5, room temperature (25° C.), 18 hours; fragments GPLG and VRGK
Description: A TCNB buffer (50 mM Tris, 10 mM CaCl2, 150 mM NaCl, 0.05% Brij 35, pH 7.5) was used as a buffer for an enzymatic reaction. A MMP2 precursor (R&D systems Inc.) was activated in 1 mM 4-aminophenylmercury acetate (APMA, manufactured by Sigma) in accordance with the protocol attached to the product to obtain activated MMP2 (hereinafter, simply referred to as MMP2). MMP2 (1 μg) was dissolved in 0.9 mL of the reaction buffer. To this solution, 780 μg of the substrate peptide synthesized above was added to obtain a solution containing a peptide in a concentration of 1 mM. The resultant solution was incubated at 25° C. for 18 hours.
The peptide was cleaved by an enzyme, MMP2. The peptide solution before and after the reaction with the enzyme was monitored by HPLC analysis (A=H2O/0.1% TFA and C═CH3CN/0.1% TFA; initial 5 minutes: 0% C, 5 to 35 minutes: 0 to 30% C, using an YMC HPLC column, YMC-Pack ODS-A (AAl2S05-2546WT) manufactured by YMC and having a length of 250 mm and an inner diameter of 4.6 mm; a particle diameter of 5 μm, a pore diameter of 12 nm, a flow amount of 0.8 mL/minute; and detection was made at UV of 220 nm). HPLC elution profiles of the peptide solution (MMP−) before treated with the enzyme and the peptide solution (MMP+) after treated with the enzyme are illustrated in FIG. 5.
The peak was separated and subjected to MALDI-TOF-MS analysis. […]

## GPLGVRGK
  cleavage of the isotope-labeled peptide by MMP2: completely cleaved
